Measurements taken from paper PMC4553094 (Thrombosis research, 2015).

T1: Human placenta type III collagen (human, UniProt P02461 154-1221, covalently modified with maleimide-PEG3500-NHS for coupling to beads)
T1 sequence (looked up): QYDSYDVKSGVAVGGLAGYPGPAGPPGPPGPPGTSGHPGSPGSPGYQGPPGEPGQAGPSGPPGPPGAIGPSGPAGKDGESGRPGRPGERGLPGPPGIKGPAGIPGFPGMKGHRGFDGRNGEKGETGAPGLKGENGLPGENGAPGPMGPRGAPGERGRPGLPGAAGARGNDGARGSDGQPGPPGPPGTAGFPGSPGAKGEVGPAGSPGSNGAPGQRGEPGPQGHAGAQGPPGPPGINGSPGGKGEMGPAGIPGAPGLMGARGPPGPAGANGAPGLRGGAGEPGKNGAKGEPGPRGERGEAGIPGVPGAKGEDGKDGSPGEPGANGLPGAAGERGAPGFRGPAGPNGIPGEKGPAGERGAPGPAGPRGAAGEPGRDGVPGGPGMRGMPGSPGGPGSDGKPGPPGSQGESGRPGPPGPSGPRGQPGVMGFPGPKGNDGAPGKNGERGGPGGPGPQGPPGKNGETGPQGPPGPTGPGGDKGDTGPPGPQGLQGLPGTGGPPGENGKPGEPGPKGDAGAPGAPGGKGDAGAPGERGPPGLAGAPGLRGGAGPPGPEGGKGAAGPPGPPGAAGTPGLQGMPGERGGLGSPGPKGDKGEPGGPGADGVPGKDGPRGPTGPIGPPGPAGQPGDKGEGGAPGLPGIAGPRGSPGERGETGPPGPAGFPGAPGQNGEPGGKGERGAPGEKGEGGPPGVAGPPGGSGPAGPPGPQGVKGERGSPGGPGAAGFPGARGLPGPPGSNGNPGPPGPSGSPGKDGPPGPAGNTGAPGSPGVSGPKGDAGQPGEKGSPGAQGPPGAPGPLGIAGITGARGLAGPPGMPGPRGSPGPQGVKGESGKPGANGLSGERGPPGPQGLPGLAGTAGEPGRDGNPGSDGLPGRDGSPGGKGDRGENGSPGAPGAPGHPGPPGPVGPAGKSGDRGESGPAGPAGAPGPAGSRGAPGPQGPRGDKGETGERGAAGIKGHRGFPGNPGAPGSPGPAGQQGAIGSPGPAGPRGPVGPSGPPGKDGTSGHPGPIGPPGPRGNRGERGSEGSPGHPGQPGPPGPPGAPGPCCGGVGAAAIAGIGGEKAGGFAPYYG


How the values were obtained:
[1] = target: Glycoprotein Ib-IX complex captured from platelet lysates (human (endogenous in platelets)) (UniProt P07359); assay: biomembrane force probe
[2] = target: T1, Human placenta type III collagen; assay: biomembrane force probe

bond lifetime at the peak force [1] [s]	affinity to collagen relative to that of A1 [2] [times]	Molecule
3.1		Plasma von Willebrand factor (from UniProt P04275 764-2813) (natural protein)
1.5		Recombinant wild-type monomeric VWF 1238-A1 (residues 1238-1471) (from UniProt P04275 1238-1471) (domain or fragment)
	10	Recombinant wild-type monomeric VWF A3 domain (residues 1687-1874) (domain or fragment) SQPLDVILLLDGSSSFPASYFDEMKSFAKAFISKANIGPRLTQVSVLQYGSITTIDVPWNVVPEKAHLLSLVDVMQREGGPSQIGDALGFAVRYLTSEMHGARPGASKAVVILVTDVSVDSVDAAADAARSNRVTVFPIGIGDRYDAAQLRILAGPAGDSNVVKLQRIEDLPTMVTLGNSFLHKLCSG
